Consider 17 sequences from the DeepSol protein solubility set.

The data set can be described thus: soluble on expression in E. coli; label from the status in PepcDB or PDB records.
In the case of “MNELLAEMAAVSSRRKQSKPRRMSGEGDAMMSPIDLSTKSFDENNCEKGAGGALPLEDRSNILPHFSVPFANPQQFLSLCAQLGNSSSRNVSSTASTTSSCPIQSCSQSFSSPAALTWHVLDAHEDEQEIFSCDVCTTTFSNGQDIREHKCQKTLASRSTSVPPSTIPSSVCFLSTPTTPCLQFSINESIGTSEIREEDEEEDMDVEDGEHVANQLFGHLLQKSDDKSKMASLFNHAFPPFAAFPNMPPPFLMRQPFDPRADVFAAGRHDNDDDWEALMEISTSDEAEKIRALVGDKAVPTTDPNQCILCRRVLSCKSALQMHYRTHTGERPFKCKICQRAFTTKGNLKTHMGVHRSKHSFRGLPISLPPQLAAMHQHQHQIAPPQRIHIHNPPTSAASAAAAVAQIQASQQCPICQQRFLNAGELAVHITEHRNSLTQPPRVMPTPTTTRVQTFPFVPFFTTPPSLNATDMSTQFNLANILSAQLKNDSSPNTDTSSVEEKITRDDPPKMASLSPSNSSDSSSSVRQDILESSEFEEKLKKLEEPPILEQQVSTTPNPKNENPLLAMQKMWAETEPPPPRQMPVLSKHQCGVCFKHFSSSSALQIHMRTHTGDKPFKCDMCGRAFTTRGNLKVHMGTHSWQQSPSRRGRRIFDVASSVTEKPMLQSPILPTSGAPGASPLAMLGPNGLSGLEMMMMLWRTVCSVCQKVCQSPNELEQHLKEHLNNGSSAAPTPLASAATPPPS”, the “soluble on expression in E. coli” value is reported as “not soluble”.
Turning to “MNETIRRILAESGTKTSKIRKLLLIGLSHREIADLLTRGNRGFVWNVYKRMRDEGLLPASQTATVLRPEPDYTFNRCFGVEIEAYNCPRQTLTDALREAGIPVEIGSRNAETNSNWKLTTDGSLEGSHTFELVSPILCGEQGLEVLERVCWVLDAYNVKINSSCGVHVHFNAGDFNLTTWQNLILSYKHAETEIDKFMPASRRGNRNTYCRSLRGFSDEDIRSAESIESLQRLFGSRYMKVNLEAYSRHRTVEFRQHSGTINFTKIENWVRFLGRMIIFASTASLPAGIRLEDFPFLGEKQKLYYKLRTKKLMV”, the “soluble on expression in E. coli” value is recorded as “not soluble”.
To “MNFNTILEEILIKRSQQKKKTSPLNYKERLFVLTKSVLSYYEGRAEKKYRKGVIDISKIKCVEIVKNDDGVIPCQNKFPFQVVHDANTLYIFAPSPQSRDRWVKKLKEEIKNNNNIMIKYHPKFWADGSYQCCRQTEKLAPGCEKYNLFESSIRKTLPPAPEIKKRRPPPPIPPEEENTEEIVVAMYDFQATEAHDLRLERGQEYIILEKNDLHWWRARDKYGSEGYIPSNYVTGKKSNNLDQYEWYCRNTNRSKAEQLLRTEDKEGGFMVRDSSQPGLYTVSLYTKFGGEGSSGFRHYHIKETATSPKKYYLAEKHAFGSIPEIIEYHKHNAAGLVTRLRYPVSTKGKNAPTTAGFSYDKWEINPSELTFMRELGSGLFGVVRLGKWRAQYKVAIKAIREGAMCEEDFIEEAKVMMKLTHPKLVQLYGVCTQQKPIYIVTEFMERGCLLNFLRQRQGHFSRDMLLSMCQDVCEGMEYLERNSFIHRDLAARNCLVNEAGVVKVSDFGMARYVLDDQYTSSSGAKFPVKWCPPEVFNYSRFSSKSDVWSFGVLMWEIFTEGRMPFEKNTNYEVVTMVTRGHRLHRPKLASKYLYEVMLRCWQERPEGRPSFEDLLRTIDELVECEETFGR” belongs “soluble”; to “MNFPWRDGNRVELLINGEEYFPRLFQCIAEARREILLETFIIFEDEVGRQLQEALSAAAERGVEVQVTVDGYGTASLSPDYLARLTASGVRVHLFDPRPRLLGMRTNLFRRLHRKLVVIDRRQAFVGGINYGEDHLVRRGNMAKQDYAVRVEGPVVRDIRQACLALLEPDADYPPLRPSGAGQPARVRLVIRDNDQSSDDIEREYLQAIRQARRRLLIANAYFFPGYRLLRELRDAARRGVRVDLVLQGMPDMPLVRLCSRLLYDYLLREGVRIHEYCQRPLHGKVAVIDDDWSTIGSSNLDPLSLSLNLEANLVIRDVAFNGQLYQHLRELARRHCRRISRRHARRGYWWRAPLIFLGFHFSRHFPAIAGWVPAHLPRLKSLEPRPSRRWQERQGQRGNP”, “not soluble”.
Regarding “MNFRPIAGIDVGKFFSEMAILSPSNEVIARMKIRHDSSTDVERAVELLKKTEKDFDSRPFVVMESTGHYHKILFHSLYKAGFEVSVINPIQTDSIKNIGIRKVKNDKVDARKIALLYRFQELKIQYPERYGCWTLARNKACEVWYNRKGLAAALR”, the “soluble on expression in E. coli” value was “not soluble”.
Turning to “MNFTDTHCHLADPALRENLPHILTAARKVGVKRFIVPATRPQDWQDVADLAEMPSEHGQIRIALGIHPWFSDGIAERDFVRLETMLAHYPQAWVGEIGLDFYDKTQTSQQRERQIQVFVRQLEIAQTLRRRVIIHNLKATADIAAAVKQTGFAQGGIVHAFSGSAEEARVLTKLGFKIGIGSLLLNPNARKVRDTLKALNDGDFVLETDSPFMLKKEINTPANIPGIAKIAAEIRGTCVEEIAKVTERNADALLGR”, the “soluble on expression in E. coli” value is “not soluble”.
“MNFVTLTSDEFNAFTTKHFSHYTQSAIHYNHRVDLKGDVHLVGVKDDNGQVIAGCLLTEARTLKFFKYFYTHRGPVMDYTNQSLVAFFFKALTSYLKKHNCLYVLVDPYLIENLRNADGEIVKSYDNRAFVRTMDKLGYKHQGFPVGYDSMSQIRWLSVLDLKDKTEDQLLKEMDYQTRRNIKKTYDIGVKTKTLTIDETQTFFDLFHMAEEKHGFKFRELPYFEEMQKLYDDHAMLKLAYIDLNEYLKTLQLKQQQLTAELSGVEEALEESPNSKKNKTKRTQLEQQLNSNKRKIDNTIEQIEQDGAVLNLASALFIYNEHEVYYLSSGSNPKYNAYMGAYHLQWEMIKFAKAHHIDRYNFYGITGDFSESSEDYGVQQFKKGFNAHVEEYIGDFIKPIKPLLYKVQTYLNHKRR”: the “soluble on expression in E. coli” value is on record as “not soluble”.
As for “MNGAIFPWREDSRFQLLIDGPAFFPRMIAAIDRAEQQVDLELYLVEAGACADAVVRALVEAGRRGVIVRCLFDDFGSKAFDAGLRKQLTDAGVILRFYNPIHWRRGVRNFYRDHRKILVVDKALAVVGGTGVTDEFWEPDKDVSQWHEVMVEIAGPLVLDWQALFDRQFHANARRFAWRPKQNFGLDHLPKAPVTGEGLGRVAYADSRQHRDILQSLVRTLHSGQKRIWLATPYFLPTWKVRRALRSAAARGVDVRLLLTGPRTDHPSVRYAGHRYYPRLLRAGVKVFEYQPCFLHLKMVLIDDWVSIGSCNFDHWNLHFNLEANLEAHDPGLTRDVAASFEKDFALSTEITLEDWKARPLWRRVKQRLWGWIDRLVVNLLDQRN”, the entry is “not soluble”; as for “MNGKFDKYEYLQDLMRRRGFAWGSFEIYGGSRGFYDYGPLGATIKRKIERKIREAFIREGFFEIETPDITPEQVFIASGHVEKFVDPVVECKKCGMRFRADHLIEEFLGIDVEGKSAEEMSRIIREHGLKCPECGGELSDVFYFNLMFETYIGPYKDKKAYLRPETAQGIFVNFKRLNAFARNKLPFGVFQIGKAYRNEISPRQGMIRLREFTQAEAEIFFNPNETEHPHFNEVKHEKLKLYPIENQLKELGEVEVTAEEAVKRGYVMNSFFAYYMVMIKKILLDIGIPEDKIRFRQQLPEERAHYSADTWDAEVYSERFGWVECVGLAYRTDYDLSRHMKMSGADLTVMIHYDKPKVVKRIQVSLNMKKVGPKLKADAKKINEIIKSMDQKELEKLVKDLNEKGKVTIEGYELSKEDFIVKEVEEKITGEKIVPHVLEPSFGIDRPFYLLLENSLTVDEDGRIYLKIKKDMAPIEVAVLPLVAKEPLTTIAYEIYRTLQKEGFIVVYDEKDSIGKRYMRYDEIGTPYCVTVDNQTPEDGTVTIRDRDTREQIRVKIEELPRKLKELIFG”, “soluble”.
As for “MNHQSYSAPTQAVAANTHLIYSTEQGGAVSPTPQKSIGSIADYDPMNGQWGTAAAQPRNSEKLGYLKAQVDKGPARFCADFAGAPPPSSNSISSTSPHSTLSSPQSTISPTGKAGFAVKAIYDYAAADKDEISFLEGDIIVNCEKIDDGWMTGTVQRTLQWGMLPANYVQPHKLPTGLHRLS”, the entry is “not soluble”; as for “MNHTSFRAIVVNETENHQFVRKVVEREVSSLPEGDVFIQVHYSSLNYKDALSATGNKGVTRTYPHTPGIDAAGVVVSSEDATIKAGDQVIVTGYDLGMNTSGGFGEYIRVPSSWVVPLPEGMSLKESMMYGTAGFTAALSVYKLIGAGVKPSMGDVLVTGATGGVGSVAVSILSKLGFNVVGATGKMEEEDMLLRLGAKKVIHRAELNDESGSPMLKGIYAGVIDTVGGHMLETALKTVKYGGCVTTCGNVAGQELQTTVYPFILRGISLLGIDSVQCPVDVRRDVWTLLAKEWGNKELLSYTEECTLEELEKKFALILQGKLKGRTVVKI”, “not soluble”.
Turning to “MNIEEAKKLIDKQSIGKGGVGDIPVVKTHIVKVLLDQIDQPQPEVPRFVADWYEKHKDSLECDLYLYHMSIYDEEVEKDDFYYWMQTSKNPVYTLINMHQFGYTIQKEKLYTVEIPNPNERQLSFVLMRQLSGNVSIKVMHRDNLDLLKTDNDLQLTESEIRKDFDWAWQFREEVVE”, the “soluble on expression in E. coli” value is on record as “not soluble”.
As for “MNIEEIKIMGGFNKFGESEKVKELVVKRGEIFGVVGPTGSGKSNLISDIEQLAQGDTPSNRKILVNGNVPDTEMRRDPRKRRIAQLSQNMNFLADMTVEEFLIMHAKSRGMNSEGIVDKVIKLANNLTGEPIEKDYNLTILSGGQSRSLMVADVAVISDSPIVLIDEIENAGIKKHEALELLAGCGKIVMVITHDPVLALMTTRRVVMRNGGMNEIIETTE”, the entry is “not soluble”; as for “MNIIGLDISKDTIDATLHKTNGSIHYIKFKNNDDGLKQFRLWIKGNRIRKVYIGMEATGIYYEKAADMLSSYYTVYVINPLKIKDYGKSRFNRTKTDKADSNLIADYIKRHQDTLIPYQIPKNKALQKLINLKNQLHQHQKQIKNRLHSTEEDFIRNIHQDLIDTIQDKMEQVKIAISEQIKKQTDNNHYRNLQTIPSIGKDTASVLYAQLTEKHFKTANQFVSYAGLNPAIIQSGTSVRGRGRLSRYGNRRLKSTLYMPALCAYRFNAFPKLINNLKKAGKPKMVIIVAIMRKLAKLAYYIVKTGQPYDAERHRLNQ”, “not soluble”.
To “MNILLANPRGFCAGVDRAISIVELALEVHGAPIYVRHEVVHNRFVVDDLKAKGAIFVEELDEVPDSAIVIFSAHGVSQAVRQEAKRRGLKVFDATCPLVTKVHMQVARASKKGTKAILIGHQGHPEVIGTMGQYYNEQAGIFLVETVEDIANLPIHHHEDLTFMTQTTLSVDDTSGMIEALKNKYPAIQGPRKNDICYATTNRQQAVRELAKQAQLVLVVGSKNSSNSNRLAELASRMGVLAKLIDGPQDILPEWLDNVETIGITAGASAPEILVQSVVAHLQTLGATSVANLVGCEENMVFEVPKELRVREVKMAGDPLEHHHHHH” belongs “not soluble”; to “MNILVTGAKGFVGRNLCAQLNNIKNGKARCYGDLKIEEVFEYDIDSTSEQLDAWCQKADFVFNLAGVNRPKENVEFMKGNFGFASTLLDTLKKHHNTCPVMLSSSAQASLTGRFGNSEYGRSKKAGEDLFLQYGKDTGAKVLVYRFPNLYGKWCRPNYNSAVATFCNNIANDLPIQVSDSSVVLELLYIDDLVDEMIHALKGEEHHCEFEGLDVHPLVDGRYCYCPVTHKVTLGEIVDLLHQFAEMPKTLMIPEIPSDSFAKRLYSTYLSYLPKEKAIFDLKMNVDQRGSFTELVHTLNCGQVSINISKPGITKGEHWHNTKWEQFIVVSGHGLIQLRKEGTDEVLNYEVSGDKIQSVIMLPGYAHNIINLSDTEDLVTVMYCNEIFNPDKPDTYFDKVKK”, “not soluble”.
As for “MNINLETAEQHAVQAYSDKKIQINSIIYESSLIVSKKEIITDFVIKDIQDINNSYIDLLLRSKPELIIIGHLQTGKTLPATLISQLSQKRIGIECMSIGAACRTYNVLLSEHRAVVAGFIFLEHHHHHH”, the “soluble on expression in E. coli” value is recorded as “not soluble”.
